Measured values published in US20250312468A1, “ANTI-PROTAC ANTIBODIES AND COMPLEXES” (Merck Patent GmbH, priority 2021, published 2025).

B1: MIC5: anti-PROTAC VHH clone, SEQ ID NO: 24 (protein)
VHH: AVQLVDSGGGLVQAGGSLRLSCAASGFTFDDYAIGWFRQAPGKEPEGILCISSSDGSAYVRDSVKGRFTMSSDNAKNTMYLQMNSLRTEDTAVYHCAVATGSCPADGGQKIFLEVWGQGTQVTVSS
modifications: new world camelid
B2: MIC7: anti-PROTAC VHH clone, SEQ ID NO: 20 (protein)
VHH: AVQLVESGGGLVQAGGSLRLSCAASGFSFDDYALGWFRQAPGKEPEGLSCISSSDGSTWYADSVKGRFTISSDNAKNTVYLQMNSLKPEDTAVYYCSAIYRLSCSVVRPTIRYALDYWGQGTQVTVSS
modifications: new world camelid

Columns and labels:
MDAMB468 cells = experiment: CellTiter-Glo cell viability assay (VHH-based PAX); settings: gemtuzumab-based vs cetuximab-based construct, GNE987 (1:1)
Procedure: (§1) Several cell viability experiments were performed following the procedure described below: Cells were seeded in different media into white cell culture-treated flat and clear bottom multiwell plates followed by overnight incubation in a humid chamber at 37° C. and 5% CO2. Complexation was performed as described in chapter 7.4.
(§2) The solutions were added to the cells based on the antibody concentration using nanodrop dispension using a Tecan D300e Digital Dispenser and all wells were normalized to the same volume using 0.3% TW20 in PBS pH 7.4 and DMSO to a final solvent concentration of 0.05% DMSO and 0.003% TW20. Incubation was performed at 37° C. at 5% or 10% CO2 dependent on the medium. The assay was developed after 3 days if not otherwise stated using CellTiter-Glo Luminescent Cell Viability Assay as described in the manufacturer's protocol. In brief, the plates were equilibrated to room temperature for 30 minutes. 100 mL CellTiter-Glo Buffer were added to the CellTiter-Glo Substrate Flask and mixed well. 30 μL of the reagent was transferred to each well. After incubation for 3 minutes at room temperature while shaking at 550 rpm, the plate was incubated for another 10 minutes at room temperature. The luminescence was read on an Envision reader from Perkin Elmer. Solvent alone and Bortezomib (1.0E-05 M) served as high control (100% viability) and low control (0% viability), respectively. Raw data were converted into percent cell viability relative to the high and low control, which were set to 100% and 0%, respectively. […] The concentration corresponds to the concentration of PROTACs in the PAX.

HEPG2 cells = experiment: CellTiter-Glo cell viability assay (VHH-based PAX); settings: cetuximab-based construct, GNE987 (1:1)
Procedure: as §1, §2

| Molecule | Selectivity Index IC5O(G)/IC50(C) (MDAMB468 cells) | Selectivity Index IC50 of C on HEPG2/MDAMB468 (HEPG2 cells) |
| --- | --- | --- |
| B1 | 98.1 |  |
| B2 | 20.9 | 565.3 |
